This is an account of results in IntAct's records for PubMed 23435566.

B1: Rab-3A-interacting protein (Rattus norvegicus (Rat)), Q62739 (parent)
chain: MANDPLEGFHEVNLASPTSPDLLGVCDPGTQEQTTSPSVIYRPHPSTLCSATIQANALNLSDLPTQPVYSSPRHLNCAEISNISIHVPEPASSVASEVAAGLTRFTSRKDSCNAEREFLQGATVTEASAGNDDIFGLSTDSLSRLRSPSVLEVREKGYERLKEELAKAQRELKLKDEECERLSKVRDQLGQELEELTASLFEEAHKMVREANVKQATAEKQLKEAQGKIDVLQAEVAALKTLVLSSSPTSPTQEPLAAGKTPFKRGHTRNKSTSSAMSGSHQDFSAIQPIVKDCREADLSLYNEFRSWKDEPTMDRTCPFLDKIYQEDIFPCLTFAKSELASAVLEAVENNTLSIEPVGLQPIRFVKASAVECGGPKKCALTGQSKPCKHRIKLGDSSSYYYISPVCRYRITSVCNFFTYIRYIQQGLVKQQDVDQMFWEVMQLRKEMSLAKLGYFKEEL
B2: Rab-3A-interacting protein (Rattus norvegicus (Rat)), Q62739 (parent)
chain: B1 chain
partner: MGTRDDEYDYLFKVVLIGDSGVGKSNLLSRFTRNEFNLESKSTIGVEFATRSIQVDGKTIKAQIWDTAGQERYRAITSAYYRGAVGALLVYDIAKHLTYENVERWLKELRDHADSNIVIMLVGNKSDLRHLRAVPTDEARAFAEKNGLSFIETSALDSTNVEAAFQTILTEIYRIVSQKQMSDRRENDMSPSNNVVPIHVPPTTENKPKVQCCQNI

In the first experiment the parent is B1. Particulars: with exoc6_mouse Exoc6, Q8R313.
exoc6_mouse Exoc6, Q8R313, sequence (Q8R313 whole entry): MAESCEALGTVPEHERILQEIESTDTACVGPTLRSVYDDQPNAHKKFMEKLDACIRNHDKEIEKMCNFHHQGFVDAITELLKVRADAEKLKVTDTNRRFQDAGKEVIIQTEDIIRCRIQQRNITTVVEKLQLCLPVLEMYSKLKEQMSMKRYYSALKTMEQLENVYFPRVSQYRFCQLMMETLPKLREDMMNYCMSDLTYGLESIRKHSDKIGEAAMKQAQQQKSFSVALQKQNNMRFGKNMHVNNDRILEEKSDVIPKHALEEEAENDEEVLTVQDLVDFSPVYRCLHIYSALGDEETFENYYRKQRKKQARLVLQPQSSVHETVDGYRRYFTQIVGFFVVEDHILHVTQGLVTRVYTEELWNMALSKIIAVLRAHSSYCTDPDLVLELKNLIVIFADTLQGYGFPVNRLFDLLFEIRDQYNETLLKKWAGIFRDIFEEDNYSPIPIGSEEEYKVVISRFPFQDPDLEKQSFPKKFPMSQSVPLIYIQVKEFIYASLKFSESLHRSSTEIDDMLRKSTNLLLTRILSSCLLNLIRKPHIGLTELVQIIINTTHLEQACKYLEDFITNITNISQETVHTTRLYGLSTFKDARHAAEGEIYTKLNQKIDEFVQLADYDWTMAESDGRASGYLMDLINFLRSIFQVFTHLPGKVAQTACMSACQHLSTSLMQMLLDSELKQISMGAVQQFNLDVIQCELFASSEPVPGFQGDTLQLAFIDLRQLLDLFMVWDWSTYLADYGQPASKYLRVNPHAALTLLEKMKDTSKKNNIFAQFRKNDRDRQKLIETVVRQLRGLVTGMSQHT
Take MANDPLEGFHEVNLASPTSPDLLGVCDPGTQEQTTSPSVIYRPHPSTLCSATIQANALNLSDLPTQPVYSSPRHLNCAEISNISIHVPEPASSVASEVAAGLTRFTSRKDSCNAEREFLQGATVTEASAGNDDIFGLSTDSLSRLRSPSVLEVREKGYERLKEELAKAQRELKLKDEECERLSKVRDQLGQELEELTASLFEEAHKMVREANVKQATAEKQLKEAQGKIDVLQAEVAALKTLVLSSSPTSPTQEPLAAGKTPFKRGHTRNKSTSSAMSGSHQDFSAIQPIVKDCREADLSLYNEFRSWKDEPTMDRTCPFLDKIYQEDSFPCLTFAKSELASAVLEAVENNTLSIEPVGLQPIRFVKASAVECGGPKKCALTGQSKPCKHRIKLGDSSSYYYISPVCRYRITSVCNFFTYIRYIQQGLVKQQDVDQMFWEVMQLRKEMSLAKLGYFKEEL [I329S]: the “effect of a mutation on the interaction” value is listed as “increasing interaction”.

The variants in the next experiment derive from B1. Particulars: with exoc6_mouse Exoc6, Q8R313. This is another data set of the same source.
On to MANDPLEGFHEVNLASPTSPDLLGVCDPGTQEQTTSPSVIYRPHPSTLCSATIQANALNLSDLPTQPVYSSPRHLNCAEISNISIHVPEPASSVASEVAAGLTRFTSRKDSCNAEREFLQGATVTEASAGNDDIFGLSTDSLSRLRSPSVLEVREKGYERLKEELAKAQRELKLKDEECERLSKVRDQLGQELEELTASLFEEAHKMVREANVKQATAEKQLKEAQGKIDVLQAEVAALKTLVLSSSPTSPTQEPLAAGKTPFKRGHTRNKATSSAMSGSHQDFSAIQPIVKDCREADLSLYNEFRSWKDEPTMDRTCPFLDKIYQEDIFPCLTFAKSELASAVLEAVENNTLSIEPVGLQPIRFVKASAVECGGPKKCALTGQSKPCKHRIKLGDSSSYYYISPVCRYRITSVCNFFTYIRYIQQGLVKQQDVDQMFWEVMQLRKEMSLAKLGYFKEEL [S272A], for which the “effect of a mutation on the interaction” value is “disrupting interaction”.

The next experiment covers variants of B2. The conditions noted are these: with rb11a_mouse Rab11a.
Turning to MANDPLEGFHEVNLASPTSPDLLGVCDPGTQEQTTSPSVIYRPHPSTLCSATIQANALNLSDLPTQPVYSSPRHLNCAEISNISIHVPEPASSVASEVAAGLTRFTSRKDSCNAEREFLQGATVTEASAGNDDIFGLSTDSLSRLRSPSVLEVREKGYERLKEELAKAQRELKLKDEECERLSKVRDQLGQELEELTASLFEEAHKMVREANVKQATAEKQLKEAQGKIDVLQAEVAALKTLVLSSSPTSPTQEPLAAGKTPFKRGHTRNKATSSAMSGSHQDFSAIQPIVKDCREADLSLYNEFRSWKDEPTMDRTCPFLDKIYQEDIFPCLTFAKSELASAVLEAVENNTLSIEPVGLQPIRFVKASAVECGGPKKCALTGQSKPCKHRIKLGDSSSYYYISPVCRYRITSVCNFFTYIRYIQQGLVKQQDVDQMFWEVMQLRKEMSLAKLGYFKEEL [S272A], the “effect of a mutation on the interaction” value is listed as “increasing interaction”.

In the next experiment the parent is B2. Particulars: with rb11a_mouse Rab11a. The source holds these as a separate data set.
Turning to MANDPLEGFHEVNLASPTSPDLLGVCDPGTQEQTTSPSVIYRPHPSTLCSATIQANALNLSDLPTQPVYSSPRHLNCAEISNISIHVPEPASSVASEVAAGLTRFTSRKDSCNAEREFLQGATVTEASAGNDDIFGLSTDSLSRLRSPSVLEVREKGYERLKEELAKAQRELKLKDEECERLSKVRDQLGQELEELTASLFEEAHKMVREANVKQATAEKQLKEAQGKIDVLQAEVAALKTLVLSSSPTSPTQEPLAAGKTPFKRGHTRNKSTSSAMSGSHQDFSAIQPIVKDCREADLSLYNEFRSWKDEPTMDRTCPFLDKIYQEDSFPCLTFAKSELASAVLEAVENNTLSIEPVGLQPIRFVKASAVECGGPKKCALTGQSKPCKHRIKLGDSSSYYYISPVCRYRITSVCNFFTYIRYIQQGLVKQQDVDQMFWEVMQLRKEMSLAKLGYFKEEL [I329S], the “effect of a mutation on the interaction” value is reported as “disrupting interaction”.
